Changes are numbered by the printed parent chain.
Key:
Experiment in all cases: SPR, mAb captured, C2 mutant analyte;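 note: Anti-C2 mAbs captured on goat anti-human IgG Biacore CM5 chips, alanine or serine C2 surface mutants flowed over at 37 °C, double-referenced sensorgrams fitted to a 1:1 binding model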
human C2 G427A = biological target: T1, human C2 G427A (human, UniProt P06681 21-752)
T1 sequence: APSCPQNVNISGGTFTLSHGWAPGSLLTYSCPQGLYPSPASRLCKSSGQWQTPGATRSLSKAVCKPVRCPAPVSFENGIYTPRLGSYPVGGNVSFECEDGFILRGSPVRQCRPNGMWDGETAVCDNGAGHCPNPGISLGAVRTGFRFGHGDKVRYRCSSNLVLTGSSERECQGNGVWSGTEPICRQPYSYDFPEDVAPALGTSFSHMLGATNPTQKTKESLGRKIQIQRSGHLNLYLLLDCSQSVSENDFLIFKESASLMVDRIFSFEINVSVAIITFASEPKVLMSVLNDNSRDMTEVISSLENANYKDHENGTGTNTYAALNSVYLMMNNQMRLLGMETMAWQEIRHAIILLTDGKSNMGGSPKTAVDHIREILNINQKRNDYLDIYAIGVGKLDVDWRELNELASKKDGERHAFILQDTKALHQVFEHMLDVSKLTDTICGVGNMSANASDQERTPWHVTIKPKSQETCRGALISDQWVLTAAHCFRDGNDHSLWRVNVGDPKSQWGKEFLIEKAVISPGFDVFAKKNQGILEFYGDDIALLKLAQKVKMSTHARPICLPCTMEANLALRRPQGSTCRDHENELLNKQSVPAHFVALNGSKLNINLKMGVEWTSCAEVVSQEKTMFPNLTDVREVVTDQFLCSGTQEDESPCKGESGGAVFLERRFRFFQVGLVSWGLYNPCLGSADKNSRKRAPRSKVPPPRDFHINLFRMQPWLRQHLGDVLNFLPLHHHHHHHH

human C2 R519A = biological target: T2, human C2 R519A (human, UniProt P06681 21-752)
T2 sequence: T1 sequence with A407G, R499A

human C2 K274A = biological target: T3, human C2 K274A (human, UniProt P06681 21-752)
T3 sequence: T1 sequence with K254A, A407G

human C2 L279A = biological target: T4, human C2 L279A (human, UniProt P06681 21-752)
T4 sequence: T1 sequence with L259A, A407G

B1: RF16-214 (antibody, V domains shown)
VH: EVQLLESGGGLVQPGGSLRLSCAASGFTFSWYQMMWVRQAPGKGLEWVSRIYPSGGGTAYADSVKGRFTISRDNSKNTLYLQMNSLRAEDTAVYYCARDAGYGDNWGQGTLVTVSS
VL: QSALTQPPSVSVSPGQTASITCSGDKLGEKYASWYQQKAGQSPVMVIYQDRKRPSGIPERFSGSNSGNTATLTISGTQAMDEADYYCQAWDTRAVVFGGGTKLTVLG
In the case of B1, the Kd (human C2 G427A) is reported as 0.0088 µM, the Kd (human C2 R519A) is reported as 0.04 µM and the binding result (human C2 K274A) is reported as “no binding”. The Kd (human C2 L279A) was 0.24 µM.

Reference: patent US20220332804A1 (CSL INNOVATION, published 2022)
